# B1: recombinant bovine interleukin-2 (protein, UniProt P05016 21-155, looked up)
# Interleukin-2: APTSSSTGNTMKEVKSLLLDLQLLLEKVKNPENLKLSRMHTFDFYVPKVNATELKHLKCLLEELKLLEEVLNLAPSKNLNPREIKDSMDNIKRIVLELQGSETRFTCEYDDATVNAVEFLNKWITFCQSIYSTMT
# notes: recombinant bovine interleukin-2, obtained from IMMUNEX Corp. Seattle, WA
# B2: recombinant bovine interleukin-1 (protein, UniProt P09428 114-266, looked up)
# Interleukin-1 beta: APVQSIKCKLQDREQKSLVLASPCVLKALHLLSQEMNREVVFCMSFVQGEERDNKIPVALGIKDKNLYLSCVKKGDTPTLQLEEVDPKVYPKRNMEKRFVFYKTEIKNTVEFESVLYPNWYISTSQIEERPVFLGHFRGGQDITDFRMETLSP
# notes: recombinant bovine interleukin-1, obtained from IMMUNEX Corp. Seattle, WA
# Assays:
# [1] = tested on: IL-2 dependant BT-2 T cell line; experiment: Residual r-BoIL-2 bioactivity in dry cow gland secretions (BT-2 bioassay); type: in vivo, bovine
# Description: FIGS. 4(A-B): Measurement of Residual r-BoIL-2 Bioactivity in Secretions from Dry Cow Glands Infused with r-BolL-2
# Secretions from 4 quarters (4 different cows) are infused with 1 mg of r-BoIL-2 at drying-off (2 quarters) or not treated with r-BoIL-2 (2 quarters). Dry gland secretions are collected at time 0,72,144 and 240 hours after infusion. All samples shown are from the 72 hour time point and are diluted 1:50 and 1:200, and assayed for amount of biologically active r-BoIL-2 using the IL-2 dependant BT-2 T cell line, panel B. The BT-2 cell line is a bovine T cell line which requires IL-2 for growth. By measuring the degree of proliferation of this cell line, one directly measures the amount of biologically active IL-2 in a test media. Data is expressed as a mean ^3 H-thymidine incorporation +/- S.D. of triplicate samples of BT-2 cells for each of the individual numbered animals. […] A standard assay of various concentrations of r-BoIL-2 in 2% dry secretions is also shown in panel A as a positive control.
# To specifically study the presence of cytokines after a single intramammary infusion into dry cows, […] from four different cows, are infused with 1 mg r-BoIL-2 at dry-off. […] Secretions from dry cow quarters treated with 1 mg of r-BoIL-2 are collected at 72, 144 and 240 hours after dry cow treatment. As with the milk, a 1:50 dilution of dry secretion samples is made and these solutions assayed by the bioassay using BT-2 and compared to r-BoIL-2 diluted in media.
# S. aureus = experiment: Therapy of established S. aureus mastitis infections; type: in vivo, S. aureus (in lactating Holstein dairy cattle); details: for most efficacious dosing: compared with a single bolus; for dose response of therapeutic efficacy / therapeutic efficacy in infected mammary glands: intramammary infusion
# Description: The percentage of quarters clearing the infection for greater than 1 milking (RESPONDING), as compared to the percentage of quarters which actually cure their infections (CURE) is a measure of the failure of the host cells to kill the bacteria. The relapse rate is the greatest for r-BoIL-2 (combined relapse rate of 40% for the 10 mg dose X's 3). […] Furthermore, if activation of the host cells is effective, as indicated by the r-BoIL-2 and r-BoGM-CSF, then a combination therapy with r-BoIL-1 or antibiotics is useful.
# ^1 S. aureus infections are established 2-3 weeks prior to treatment.
# Treatments are administered after the AM or PM milking by 1-3 successive
# intramammary infusions. A total of 120 mammary glands from 28 different
# lactating Holstein dairy cattle are used. Recombinant bovine
# interleukin1(IL-1) and interleukin2(IL-2) are obtained from IMMUNEX Corp.
# Seattle, WA. Na cephapirin is prepared is PBS; and CefaLak ®
# (BristolMeyers) is used according to package# insert instructions.
# ^2 Cytokines are infused intramammary through the teat canal after th
# PM milking at the indicated intervals. The total dose is delivered in a
# total volume of 10 ml of sterile PBS. The biological activity of rBoIL-1
# and rBoIL-2 is 32,000 Units/μg and 22,000 Units/μg, respectively. A
# total dose per infusion 200 mg of Na cephapirin and CefaLak ® is
# administered after consecutive PM and AM milkings, according to described
# ^3 The % RESPONDING = quarters which transiently (> 1 milking) are
# free of S. aureus divided by the total number of quarters treated.
# ^4 The % CURED QUARTERS = # of quarters which clear their infection
# and remain free of S. aureus divided by the total number of quarters
# treated. Infections are considered to have relapsed if there are > 1 CFUs
# from three consecutive AM milkings, or > 20 CFUs for two consecutive afte
# therapy at anytime during the 14 day monitoring period.
# ^5 The % RELAPSE = [1 - {[…]}] ×
# [2] = tested on: PMNs from mammary glands early in involution; experiment: Phagocytic activity of cells from dry cow secretions after cytokine treatment; type: in vivo, bovine (Holstein dairy cattle); details: treatment with IL-2
# Description: FIG. 5: Phagocytic Ability of PMNs After Cytokine Administration from Mammary Glands Early in Involution
# A total of 4 mammary glands from 2 Holstein dairy cattle just entering the dry period are used. All quarters had been infected with S. aureaus for 4-6 weeks prior to treatment. Two of the quarters are treated with Cefa-Dri® and 2 quarters are treated with Cefa-Dri®+1 mg bovine IL-2 by intramammary infusion immediately following the last milking prior to drying-off. Dry cow secretions are then collected at day 3 and day 6 of the dry-off period and the number of viable somatic cells counted on a Coulter® with a C256 Channelyzer. The total percentage of phagocytosis by PMNs is quantitatively measured by flow cytometry by measuring the percentage of cells ingesting 2μ fluorescent beads.
# Somatic cells are isolated from mammary gland lavages on days 3 and 6 after treatment with Cefa-Dri® plu6 IL-2 or Cefa-Dri® alone. The cells are incubated with fluorescent latex micropheres and analyzed on the flow cytometer for their ability to phagocytize the beads.
# [3] = Milk production in lactations immediately following dry cow therapy; type: in vivo, bovine (dairy cows); details: FIG. 6
# Description: FIG. 6: Milk Production Early in Lactation Before and After Intramammary Infusion of r-BoIL-2 as a Dry Cow Therapy
# Mean milk production in kilograms; (S.D.) is shown for 4 cows for the first six days after the initiation of lactation for the lactation immediately prior to treatment and immediately following treatment. Production after r-BoIL-2 treatment or for the same time period for the lactation prior to treatment is monitored. Total dose of r-BoIL-2 received by each treated cow is 2 mg. Three cows are completing their second lactation and one is completing its third lactation at the time of r-BoIL-2 therapy. Post-treatment production from initiation of the third or fourth lactation is compared to the production for the first 6 days after initiation of the second or third lactation (pre-treatment) respectively of the same animals .
# The effects of r-BoIL-2 on possible milk production after dry-cow therapy are also evaluated. Milk production for three dairy cows for the first five days of the lactation cycle (second or third lactation) prior to r-BoIL-2 treatment is compared to the milk production for the first five days of the lactation cycle (third or fourth lactation) immediately following r-BoIL-2 treatment, FIG. 6.
# [4] = IL-2 multiple, 2 mg, interval 24 hrs
# [5] = IL-2 multiple, 10 mg, interval 24 hrs
# [6] = IL-1 multiple, 10 μg, interval 24 hrs
# [7] = IL-1 multiple, 10 μg, interval 48 hrs
# [8] = IL-1 multiple, 200 μg, interval 24 hrs
# [9] = IL-1 multiple, 200 μg, interval 48 hrs
molecule,measurement,setting,value
B1,detectable r-BoIL-2 bioactivity in dry gland secretions,"[1]; 1 mg intramammary at dry-off, 72 hours after infusion, 1:50 dilution",less than 0.024 .eta.g/ml
same,residual r-BoIL-2 bioactivity in secretions,"[1]; 1 mg intramammary at drying-off, 72, 144, 240 hours",No r-BoIL-2 activity could be detected at any time point
same,biologically active IL-2 in dry cow secretions,"[1]; after 3 days, FIG. 4",no biologically active IL-2 is detected after 3 days
same,combined relapse rate,S. aureus; 10 mg dose X's 3,40%
same,% CURES,S. aureus; [4],9%
same,% RELAPSE,S. aureus; [4],84%
same,% RESPONSE,S. aureus; [4],55%
same,% CURES,S. aureus; [5],25%
same,% RELAPSE,S. aureus; [5],57%
same,% RESPONSE,S. aureus; [5],58%
same,% RESPONSE,"S. aureus; IL-2 multiple, 10 mg, interval 48 hrs",33%
same,% CURES,"S. aureus; IL-2 single, 2 μg",0%
same,% RESPONSE,"S. aureus; IL-2 single, 2 μg",0%
same,% CURES,"S. aureus; IL-2 single, 10 μg",0%
same,% RELAPSE,"S. aureus; IL-2 single, 10 μg",100%
same,% RESPONSE,"S. aureus; IL-2 single, 10 μg",20%
same,% CURES,"S. aureus; IL-2 single, 30 μg",10%
same,% RELAPSE,"S. aureus; IL-2 single, 30 μg",0%
same,% RESPONSE,"S. aureus; IL-2 single, 30 μg",10%
same,most efficacious dosing,S. aureus,most efficacious if doses are administered over 3 consecutive milkings
same,dose response of therapeutic efficacy,S. aureus,dose response therapeutic efficacy
same,therapeutic efficacy in infected mammary glands,S. aureus,effectively treated
same,phagocytic activity of cells of the dry gland,[2],seems to enhance the phagocytic activity of cells of the dry gland
same,improvement in milk production at the following lactation,[3]; first five days of lactation vs prior lactation,80%
same,inhibition of milk production at the following lactation,[3]; first five days of lactation,No inhibition of milk production
B2,% CURES,S. aureus; [6],8%
same,% RELAPSE,S. aureus; [6],90%
same,% RESPONSE,S. aureus; [6],77%
same,% CURES,S. aureus; [7],0%
same,% RELAPSE,S. aureus; [7],100%
same,% RESPONSE,S. aureus; [7],39%
same,% CURES,S. aureus; [8],7%
same,% RELAPSE,S. aureus; [8],91%
same,% RESPONSE,S. aureus; [8],79%
same,% CURES,S. aureus; [9],29%
same,% RELAPSE,S. aureus; [9],54%
same,% RESPONSE,S. aureus; [9],64%
same,% CURES,"S. aureus; IL-1 single, 10 μg",11%
same,% RELAPSE,"S. aureus; IL-1 single, 10 μg",0%
same,% RESPONSE,"S. aureus; IL-1 single, 10 μg",11%
same,% CURES,"S. aureus; IL-1 single, 200 μg",0%
same,% RELAPSE,"S. aureus; IL-1 single, 200 μg",100%
same,% RESPONSE,"S. aureus; IL-1 single, 200 μg",20%
same,% CURES,"S. aureus; IL-1 single, 600 μg",0%
same,% RELAPSE,"S. aureus; IL-1 single, 600 μg",100%
same,% RESPONSE,"S. aureus; IL-1 single, 600 μg",10%
same,relapse rate,S. aureus; as quoted in text of Example 5,54%
same,most efficacious dosing,S. aureus,most efficacious if doses are administered over 3 consecutive milkings
same,dose response of therapeutic efficacy,S. aureus,dose response therapeutic efficacy
same,therapeutic efficacy in infected mammary glands,S. aureus,effectively treated
